The record followed here is patent US20060234925A1.

Assay [1] addresses ovine CXCR3 on peripheral blood mononuclear cells (ovine). The experiment in a line: cell-based or functional assay.
Assay [2] has as its target caprine CXCR3 (caprine (goat)) (UniProt Q867B2). The experiment in a line: cell-based or functional assay.
Sequence of UniProt Q867B2 (Q867B2 whole entry): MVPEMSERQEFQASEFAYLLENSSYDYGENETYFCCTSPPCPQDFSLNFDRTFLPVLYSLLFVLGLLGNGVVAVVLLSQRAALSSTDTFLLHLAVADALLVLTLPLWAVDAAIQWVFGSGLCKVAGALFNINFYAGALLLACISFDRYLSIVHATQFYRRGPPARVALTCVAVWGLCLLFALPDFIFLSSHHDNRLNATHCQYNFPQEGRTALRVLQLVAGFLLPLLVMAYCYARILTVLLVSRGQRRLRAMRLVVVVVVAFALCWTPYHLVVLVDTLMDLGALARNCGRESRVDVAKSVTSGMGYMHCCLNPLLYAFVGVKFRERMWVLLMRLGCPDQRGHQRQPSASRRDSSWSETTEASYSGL

In the case of “recombinant caprine IP-10 (N-terminal histidine tag, mature region, expressed from pET-14b-cIP-10 in E. coli BL21-SI) (ligand)”, the chemotaxis of ovine PBMCs in assay [1] is 0.2 to 5 ng/mL. In assay [2], this substance showed a chemotaxis of HTS-1 cells transfected with caprine CXCR3 of 1 to 20 ng/mL and a chemotaxis of KU-1 cells transfected with caprine CXCR3 (modified Boyden chamber) of 1 to 20 ng/mL.
